Data reported in patent US20260092121A1 (TALEM THERAPEUTICS, published 2026).
Substitutions are numbered along the chain they refer to. Numbers in names are those of the source.

B1: KiH.3C12_TrkB × 1A09_CD3 (bispecific antibody)
scFv: QVQLVQSGAEVKKPGESLKISCKGSGYSFTSYWIGWVRQMPGKGLEWMGIIYPGDSDTRYSPSFQGQVTISADKSISTAYLQWSSLKASDTAMYYCTRSSFNDHWGQGTLVTVSSSSGGGGSGGGGSGGSALQPVLTQPPSVSVSPGQTASITCSGDKLGNKFVSWFQQKPGQSPVLVIYQDTKRPSGIPERFSGSNSGSTATLTITGTQAMDDADYYCQAWNTNTALFGGGTKLTVL
VH: EVQLVQSGGGLVKPGGSLRLSCAASGFTFSSYSMNWVRQAPGKGLEWVSSISSSSSYIYYADSVKGRFTISRDNSKNTLYLQMNSLRAEDTAVYYCARVKDYDSSLDYWGQGTLVTVSS
VL: SYELMQPPSVSVSPGQTARITCSGFKLGDKYVSWYQQKPGQSPVLVIYQDSKRPSGIPERFSGSNSGNTATLTISGTQAMDEADYYCQAWDSSTVVFGGGTKLTVL
notes: scFv-knob-Fc (IgG1 T366W/S354C) + Fab-hole-Fc (T366S/L368A/Y407V/Y349C); also called 3C12-1A09; 3C12/1A09
B2: KiH.6E08_TrkB × 8A05_CD3 (bispecific antibody)
scFv: QVQLVQSGGGVVQPGRSLRLSCAASGFTFSSYAMHWVRQAPGKGLEWVAVISYDGSNKYYADSVKGRFTISRDNSKNTLYLQMNSLRAEDTAVYYCARAFRRYDAFDIWGQGTLVTVSSSSGGGGSGGGGSGGSALDIQMTQTPLSLSVTLGQPASISCRSSQGLVYSDGNTYLNWFQQRPGQSPRRLIYKVSNRDSGVPDRFSGSGSGTDFTLKISRVEAEDVGVYYCMQGTHWPPAFGQGTKVEIK
VH: QVQLQQSGGGLVQSGGSLRLSCAASGFSFGSSAMSWVRQAPGRGLEWVSGISHSGSTTYYADSVKGRFTISRDNSKNTLYLQMNSLRVEDTAVYYCAKIGAYGYYFHYWGQGTLVTVSS
VL: NFMLTQPHSVSESPGKTVTISCTRSGGSIASNYVQWYQQRPGSSPTTVIYDDNQRPSGVPDRFSGSIDSSSNSASLTISGLKTEDEADYYCQSSDNINHVIFGGGTKLTVL
notes: scFv-knob-Fc (IgG1 T366W/S354C) + Fab-hole-Fc (T366S/L368A/Y407V/Y349C); also called 6E08-8A05
B3: KiH.3C12_TrkB × 3G07_CD3 (bispecific antibody)
scFv: B1 scFv
VH: B2 VH with S14P
VL: NFMLTQPHSLSESPGKTVTISCTRSSGSIASKYVQWYQQRPGSAPTTVIYDDKQRPSGVPDRFSGSFDSSSNSASLTISGLKTEDEADYYCQSFDSTNQAVVFGGGTKLTVL
notes: scFv-knob-Fc (IgG1 T366W/S354C) + Fab-hole-Fc (T366S/L368A/Y407V/Y349C); also called 3C12-3G07; 3C12/3G07
B4: KiH.6E08_TrkB × 3G07_CD3 (bispecific antibody)
scFv: B2 scFv
VH: B2 VH with S14P
VL: B3 VL
notes: scFv-knob-Fc (IgG1 T366W/S354C) + Fab-hole-Fc (T366S/L368A/Y407V/Y349C); also called 6E08-3G07
B5: KiH.3C12_TrkB × 8A05_CD3 (bispecific antibody)
scFv: B1 scFv
VH: B2 VH
VL: B2 VL
notes: scFv-knob-Fc (IgG1 T366W/S354C) + Fab-hole-Fc (T366S/L368A/Y407V/Y349C); also called 3C12-8A05; 3C12/8A05
B6: anti-TrkB chicken-derived clone F5 (antibody, V domains shown)
VH: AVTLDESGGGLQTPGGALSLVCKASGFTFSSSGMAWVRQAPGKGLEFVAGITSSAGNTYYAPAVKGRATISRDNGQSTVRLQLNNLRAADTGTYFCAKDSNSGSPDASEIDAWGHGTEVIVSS
VL: QAALTQPASVSANPGETVKITCSGYKSYYGWYQQKSPGSAPVTVIYDNTNRPSNIPSRFSGSTSGSTATLTITGVQADDEAVYYCGNADHSYVGVFGAGTTLTVL
notes: chimeric chicken-human mAb
B7: anti-TrkB chicken-derived clone B11 (antibody, V domains shown)
VH: AVTLDESGGGLQTPGGALSLVCKASGFTFSSFNMFWVRQAPGKGLEFVAHIKRNGGETDYGAAVKGRATISRDDGQSTVRLQLNNLRAEDTATYFCAKDAGDNCRWNYCTTNIDAWGHGTEVIVSS
VL: QAALTQPASVSANPGETVKITCSGGGRWYGTYYYGWYQQKSPGSAPVTVIYSNDKRPSDIPSRFSGSASGSTATLTITGVQADDEAVYYCGSWDSTDTTAFGAGTTLTVL
notes: chimeric chicken-human mAb
B8: anti-TrkB chicken-derived clone D5 (antibody, V domains shown)
VH: AVTLDESGGGLQTPGGPLSLVCEGSGFTFSSYGMAWVRQAPGKRLEWVASISSTGINAYYGAAVKGRATISRDNGQSTVRLQLNNLRAEDTGIYYCSKCAYSGSCSTSIDAWGHGTEVIVSS
VL: QAALTQPASVSANLGGTVEITCSGGSSGYGYGWYQQKSPGSAPVTVIYNNNNRPSDIPSRFSGSLSDSTHTLTITGVRAEDEAVYFCGAWESSATDIFGAGTTLTVL
notes: chimeric chicken-human mAb
B9: anti-TrkB chicken-derived clone B1.2 (antibody, V domains shown)
VH: AVTLDESGGGLQTPGGGLSLVCKASGFTFSNHQMAWVRQAPGKGLEYVGLINAAGSWTYYGTAVKGRATISRDNGQSTVRLQLNNLRAEDTATYYCAKDVYGYCSTCGATIDTWGHGTEVIVSS
VL: QAALTQPSSVSANPGETVKITCSGPTYDYGWFQQKSPGSAPVTVIYYNDNRPSDIPSRFSGSKSGSTATLTITGVQAEDEAVYYCGTYEDNNGASFGAGTTLTVL
notes: chimeric chicken-human mAb
B10: anti-TrkB chicken-derived clone F1.3 (antibody, V domains shown)
VH: AVTLDESGGGLQTPGGALSLVCKASGFTFSSFPMVWVRQAPGKGLEFVAGIVRTSTPKYGAAVTGRATISRDNGQSTVRLQLNNLRAEDTGTYFCAKSATICGNCPEDIDAWGHGTEVIVSS
VL: QAALTQPASVSANPGETVKITCSGGSSDYGWFQQKSPGSAPVTVIYYSDKRPSDIPSRFSGSTSGSTNTLTITGVQVEDEAVYFCGSGDNSYVGFGAGTTLTVL
notes: chimeric chicken-human mAb
B11: anti-TrkB chicken-derived clone A12 (antibody, V domains shown)
VH: B10 VH
VL: QAALTQPASVSANPGETVKITCSGGSSDYGWFQQKSPGSAPVTVIYYSDKRPSDIPSRFSGSASGSMGALIITGVQAEDEAVYFCGSRDSSNVAIFGAGTTLTVL
notes: chimeric chicken-human mAb
B12: anti-TrkB chicken-derived clone B5 (antibody, V domains shown)
VH: B10 VH
VL: B11 VL with A63T
notes: chimeric chicken-human mAb
B13: anti-TrkB chicken-derived clone B4.2 (antibody, V domains shown)
VH: AVTLDESGGGLQTPGGGLSLVCKASGFTFSSYTMQWVRQAPGKGLEWVAGICNDGTTTNYGSAVKGRATISRDNGQSTLRLQLNNLRAEDTGIYFCTRGVDICWNSGNNIDAWGHGTEVIVSS
VL: QAALTQPASVSANPGETVKITCSGGGSYYGSYYYGWYQQKSPGSAPVTVIYNNDKRPSDIPSRFSGSLSGSTNTLTITGVQVEDESVYFCGSKDSSGAGIYGAGTTLTVL
notes: chimeric chicken-human mAb
B14: anti-TrkB chicken-derived clone E2 (antibody, V domains shown)
VH: AVTLDESGGGLQTPGGALSLVCKASGFDFSSNAMGWVRQAPGKGLEFIASITTDGSYTTYGAAVKGRATISRDDGQSTLRLQLNNLRAEDTATYYCAKDSSIHWNGYDIDAWGHGTEVIVSS
VL: QAALTQPSSVSANPGETVKITCSGSINNYGWYQQKSPGSAPVTVIYQNDKRPSDIPSRFSGSKSGSTGTLTITGVQAEDEAVYFCGSEDSRTYLGIFGAGTTLTVL
notes: chimeric chicken-human mAb

molecular target: T1, human TrkB-His (human, UniProt Q16620 32-430); assay: ELISA
T1 construct: in-house fusion of the TrkB ECD with poly-His, HEK293; also called huTrkB-His; hTrkB-His; not shown: poly-His tag

| Binder | binding result |
| --- | --- |
| B1 | binds |
| B2 | binds |
| B3 | binds |
| B4 | binds |
| B5 | binds |

molecular target: T1, human TrkB-His; assay: BLI off-rate, mAb immobilized, 300 nM TrkB-His

| Binder | koff |
| --- | --- |
| B6 | 0.00163 s⁻¹ |
| B7 | 0.00434 s⁻¹ |
| B8 | 0.000219 s⁻¹ |
| B9 | 0.000483 s⁻¹ |
| B10 | 0.0156 s⁻¹ |
| B11 | 0.00176 s⁻¹ |
| B12 | 0.00114 s⁻¹ |
| B13 | 0.00136 s⁻¹ |
| B14 | 0.000575 s⁻¹ |

molecular target: TrkB in PathHunter eXpress TrkB Functional Assay cells (modified U2OS); assay: cell-based or functional assay

| Binder | TrkB activation (EC50) |
| --- | --- |
| B6 | 46 ng/mL |
| B7 | 0.00086 ng/mL |
| B8 | 180 ng/mL |
| B9 | 7.5 ng/mL |
| B10 | 380 ng/mL |
| B11 | 4.5 ng/mL |
| B12 | 8.9 ng/mL |
| B14 | 170 ng/mL |
